In paper PMC7284770, “Cloning and Expression of a Perilla frutescens Cytochrome P450 Enzyme Catalyzing the Hydroxylation of Phenylpropenes” (Plants, 2020) one finds Km and kcat data, which are given here for one substance.

The series deals with T1, C=CCc1cc(OC)c2c(c1)OCO2.
T1 construct: full-length, 505 residues, 57 kD, untagged; microsomal fraction of Saccharomyces cerevisiae AH22, vector pGYR-SpeI co-expressing yeast NADPH-P450 reductase
As to the kind of experiment: GC-FID product assay, yeast microsomal fraction. In kind it is biochemical, Perilla frutescens. The settings on record: 0.5 mM NADPH, 50 mM HEPES/NaOH pH 7.5, 30 °C, 15 min, myristicin 0.2 to 10 µM, co-expressed yeast NADPH-P450 reductase, product 6-allyl-4-methoxy-1,3-benzodioxol-5-ol. An excerpt:
GC-FID product assay, yeast microsomal fraction on Pf-49487 (CYP71D558) | We performed kinetic analyses of the Pf-49487 reaction using myristicin as substrate.

One may read the Km as the substrate concentration at which the rate is half of its maximum. Broadly, the kcat is the number of substrate molecules converted per active site and unit of time at saturation. Consider “Pf-49487 (CYP71D558) (Perilla frutescens)”, for which the Km was found to be 9.1 µM and the kcat turned out to be 0.25 s⁻¹.
